In patent US20250136688A1 (Janssen / Centocor, published 2025):

Tests used:
[1] = molecular target: T1, Human CD3 epsilon (human, UniProt P07766 23-207); assay: flow cytometry on T cells, average of 6 healthy human donors
T1 construct: Stood on human T cells (pan-T cells, isolated donor T cells) as part of the TCR/CD3 complex; the other chains of the complex are not written here; also called CD3ε; CD3R

[2] = molecular target: T2, ectonucleotide pyrophosphatase/phosphodiesterase family member 3 (ENPP3) (human, UniProt O14638 1-875); assay: cell-based or functional assay
T2 sequence (looked up): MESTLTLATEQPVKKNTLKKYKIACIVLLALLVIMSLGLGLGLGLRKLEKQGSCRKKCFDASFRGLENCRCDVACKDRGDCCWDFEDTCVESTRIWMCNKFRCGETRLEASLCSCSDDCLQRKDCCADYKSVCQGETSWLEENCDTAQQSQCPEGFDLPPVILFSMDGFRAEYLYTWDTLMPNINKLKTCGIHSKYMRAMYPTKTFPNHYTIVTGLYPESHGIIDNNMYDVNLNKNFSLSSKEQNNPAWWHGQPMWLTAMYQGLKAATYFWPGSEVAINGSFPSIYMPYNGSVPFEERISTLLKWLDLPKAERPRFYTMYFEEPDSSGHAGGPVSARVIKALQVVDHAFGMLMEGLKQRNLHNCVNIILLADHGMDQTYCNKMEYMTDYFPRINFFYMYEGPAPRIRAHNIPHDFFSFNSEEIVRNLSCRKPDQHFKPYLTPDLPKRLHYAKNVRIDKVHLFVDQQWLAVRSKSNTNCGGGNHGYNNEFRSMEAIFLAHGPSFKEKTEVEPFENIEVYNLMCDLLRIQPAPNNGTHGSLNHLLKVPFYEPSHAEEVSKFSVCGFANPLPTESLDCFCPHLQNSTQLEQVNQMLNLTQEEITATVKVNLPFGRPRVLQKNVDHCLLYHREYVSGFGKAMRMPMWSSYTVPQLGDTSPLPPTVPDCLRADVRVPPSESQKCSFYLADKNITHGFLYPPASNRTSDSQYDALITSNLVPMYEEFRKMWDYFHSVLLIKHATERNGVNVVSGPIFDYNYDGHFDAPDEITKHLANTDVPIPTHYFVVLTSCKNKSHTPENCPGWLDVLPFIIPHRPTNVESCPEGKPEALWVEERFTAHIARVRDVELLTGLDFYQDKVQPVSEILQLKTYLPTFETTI

[3] = molecular target: T2, ectonucleotide …; assay: cell-based or functional assay; remark: listed apart in the source

T1 sequence (P07766 23-207 limits assumed): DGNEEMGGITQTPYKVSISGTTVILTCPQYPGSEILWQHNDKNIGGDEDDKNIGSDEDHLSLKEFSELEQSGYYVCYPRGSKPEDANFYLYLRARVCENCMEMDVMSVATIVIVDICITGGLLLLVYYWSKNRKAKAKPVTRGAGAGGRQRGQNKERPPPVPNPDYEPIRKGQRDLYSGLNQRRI

- EC50 [1]: 177 nM
- T-cell activation EC50, A704, donor 110040278, E:T 3:1 [2]: 0.008 nM
- T-cell activation EC50, A704, donor 110042496, E:T 3:1 [2]: 0.017 nM
- T-cell activation EC50, A704, donor 110042593, E:T 3:1 [2]: 0.013 nM
- T-cell activation EC50, A704, donor 110044049, E:T 3:1 [2]: 0.008 nM
- T-cell activation EC50, A704, donor 110048457, E:T 3:1 [2]: 0.01 nM
- T-cell activation EC50, A704, donor 888668965, E:T 3:1 [2]: 0.008 nM
- T-cell activation EC50, VMRCRCW, donor 110040278, E:T 3:1 [2]: 0.007 nM
- T-cell activation EC50, VMRCRCW, donor 110042496, E:T 3:1 [2]: 0.015 nM
- T-cell activation EC50, VMRCRCW, donor 110042593, E:T 3:1 [2]: 0.017 nM
- T-cell activation EC50, VMRCRCW, donor 110044049, E:T 3:1 [2]: 0.009 nM
- T-cell activation EC50, VMRCRCW, donor 110048457, E:T 3:1 [2]: 0.009 nM
- T-cell activation EC50, VMRCRCW, donor 888668965, E:T 3:1 [2]: 0.016 nM
- T-cell activation (Flow Cytometry) EC50, A704 [3]: 0.011 nM
- T-cell activation (Flow Cytometry) EC50, HepG2 [3]: 0.041 nM
- T-cell activation (Flow Cytometry) EC50, VMRCRCW [3]: 0.018 nM
B1: NPP3B815 (NPP3B56×CD3B2030-N106A-spFv) (bispecific antibody, human IgG1, kappa, L234A L235A)
chain: EIVLTQSPATLSASPGERVTLSCSASSSVSYMNWYQQKPGCAPRRWIYDSSKLASGVPARFSGSGSGRDYTLTISSLEPEDFAVYYCQQWSRNPPTFGGGTKVEIKGGGSGGSGGCPPCGGSGGQVQLVQSGAEVKKPGSSVKVSCKASGYTFTRSTMHWVKQAPGQGLEWIGYINPSSAYTNYNQKFQGRVTLTADKSTSTAYMELSSLRSEDTAVYYCASPQVHYDYAGFPYWGCGTLVTVSSEPKSSDKTHTCPPCPAPEAAGGPSVFLFPPKPKDTLMISRTPEVTCVVVSVSHEDPEVKFNWYVDGVEVHNAKTKPREEQYNSTYRVVSVLTVLHQDWLNGKEYKCKVSNKALPAPIEKTISKAKGQPREPQVYTLPPSREEMTKNQVSLWCLVKGFYPSDIAVEWESNGQPENNYKTTPPVLDSDGSFFLYSKLTVDKSRWQQGNVFSCSVMHEALHNHYTQKSLSLSPGK
heavy: EVQLVESGGGRVKPGGSLRLSCAASGFTFSDYSMNWVRQAPGKGLEWVSSISSISSYVKYADSVKGRFTMSRDNAKNSLFLQMNSLRDEDMAVYYCARGHYFDYWGQGTLVTVSSASTKGPSVFPLAPSSKSTSGGTAALGCLVKDYFPEPVTVSWNSGALTSGVHTFPAVLQSSGLYSLSSVVTVPSSSLGTQTYICNVNHKPSNTKVDKKVEPKSCDKTHTCPPCPAPEAAGGPSVFLFPPKPKDTLMISRTPEVTCVVVSVSHEDPEVKFNWYVDGVEVHNAKTKPREEQYNSTYRVVSVLTVLHQDWLNGKEYKCKVSNKALPAPIEKTISKAKGQPREPQVYTLPPSREEMTKNQVSLSCAVKGFYPSDIAVEWESNGQPENNYKTTPPVLDSDGSFFLVSKLTVDKSRWQQGNVFSCSVMHEALHNRFTQKSLSLSPGK
light: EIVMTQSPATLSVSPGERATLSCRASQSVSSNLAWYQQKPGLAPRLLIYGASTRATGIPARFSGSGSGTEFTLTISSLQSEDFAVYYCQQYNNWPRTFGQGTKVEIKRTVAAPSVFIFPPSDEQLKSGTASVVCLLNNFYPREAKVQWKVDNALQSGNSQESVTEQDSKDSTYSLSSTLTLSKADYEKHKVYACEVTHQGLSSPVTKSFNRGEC
notes: Heavy Chain 1 = anti-CD3 spFv-Fc (knob); Heavy Chain 2 and Light Chain = anti-ENPP3 Fab arm NPP3B56 (hole); IgG1 with L234A, L235A, D265S; also called ENPP3×CD3
- Tumor cell killing (Incucyte) EC50, A704 [3]: 0.03 nM
- Tumor cell killing (Incucyte) EC50, HepG2 [3]: 0.53 nM
- Tumor cell killing (Incucyte) EC50, TUHR4TKB [3]: 0.05 nM
- Tumor cell killing (Incucyte) EC50, TUHR10TKB [3]: 0.02 nM
- Tumor cell killing (Incucyte) EC50, VMRCRCW [3]: 0.13 nM
